This is an account of results in PMC3063151 (The Journal of neuroscience : the official journal of the …, 2011).

The series “SEC” deals with the molecule itself. The series can be described thus: SEC.
The series “crystal structure” concerns the molecule itself. The series can be described thus: crystal structure.

A word on the stoichiometry N: it is a count of units in the complex or per binding partner.

B1: GluN1-NTD-Y109C, purified (gel filtration and negative stain EM) (domain or fragment)
chain: not shown
As to B1, the “stoichiometry N” value in the series “SEC” is 2.

B2: GluN1-NTD (crystallised; from GluN1-NTD-8His) (domain or fragment)
chain: not shown
modifications: N-linked N-acetyl glucosamine at N61, N203, N239, N276 and N300 (EndoH treated)
For B2, in “crystal structure”, the binding result is on record as “binds”.
